Assay results as given in US20130261013A1.
Primed or numbered codes have the meaning given here. Side chains are listed from the residue outwards. Ends that are not written are not given here. * marks the point of attachment. dT′ = N3-(decanoic acid)-2'-deoxythymidine (dT probe 19), Cc1cn([C@H]2C[C@H](O)[C@@H](CO)O2)c(=O)n(CCCCCCCCCC(=O)*)c1=O; coumarin = 7-methoxycoumarin-3-carboxylic acid, COc1ccc2cc(C(=O)*)c(=O)oc2c1; 25OHVD3 = 25-hydroxyvitamin D3, linked at its carbon 11; Dansyl = CN(C)c1cccc2c(S(=O)(=O)*)cccc12; 8C = 8-carbon spacer; Ahx = NCCCCCC(=O)O; VD3 = vitamin D3

T1: vitamin D binding protein
T1 sequence (P02774 17-474, species assumed, looked up): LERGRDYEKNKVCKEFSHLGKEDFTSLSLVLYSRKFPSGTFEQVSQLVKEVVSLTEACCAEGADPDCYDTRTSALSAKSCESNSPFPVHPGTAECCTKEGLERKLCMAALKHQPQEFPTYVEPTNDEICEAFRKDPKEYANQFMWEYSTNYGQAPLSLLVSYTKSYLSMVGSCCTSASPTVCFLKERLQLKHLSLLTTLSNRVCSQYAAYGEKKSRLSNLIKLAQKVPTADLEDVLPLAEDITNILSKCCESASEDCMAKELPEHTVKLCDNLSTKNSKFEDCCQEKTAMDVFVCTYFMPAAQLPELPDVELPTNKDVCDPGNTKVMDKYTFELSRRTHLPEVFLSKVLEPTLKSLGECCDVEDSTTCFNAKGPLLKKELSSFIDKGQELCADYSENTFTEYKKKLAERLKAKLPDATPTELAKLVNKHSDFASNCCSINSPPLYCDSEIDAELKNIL


Key:
[1] = target: T1, vitamin D binding protein; assay: SPR (Biacore 2000), DBP immobilized on CM5, 1:1 model
thymidine kinase = assay: fluorescence screen, 2 µM binder, 2 and 4 µM TK; estimate for 'hits'

| Binder | Kd [1] | Kd (thymidine kinase) |
| --- | --- | --- |
| Ac-NAADLEARIK(Dansyl)HLAERLK([8C-25OHVD3])ARGPVDAAQLAEQLARAFEAFARAG (designed binder) [3-C10L17-8C-25OHVD3 (dansyl)] | 1200 nM |  |
| Ac-NAADLEAK([Ahx-25OHVD3])IRHLAEK(Dansyl)LAARGPVDAAQLAEQLARRFEAFARAG (designed binder) [3-C15L8-6C-25OHVD3 (dansyl)] | 1300 nM |  |
| Ac-NAADLEAKIRHLREK(Dansyl)LAARGPRDAAQLAEQLARRFERFARAG (designed binder, not fully specified (residue 8)) [4-C15L8-6C-VD3 (dansyl)] | 1800 nM |  |
| Ac-NAADLEAK(dT′)IRHLAEK(Dansyl)LAARGPVDAAQLAEQLARRFEAFARAG (designed binder) [3-C15L8-dT] |  | < 20 nM |
| Ac-NAADLEARIK(Dansyl)HLRERLKARGPRDAAQLAEQLARAFERFARAG (designed binder, not fully specified (residue 17)) [4-C10L17-6C-VD3 (dansyl)] | 890 nM |  |
| NAADLEARIRHLRERLAARGPK([Ahx-VD3])DAK(Dansyl)QLAEQLARAFERFARAG (designed binder, not fully specified (N-terminus, C-terminus)) [4-C25L22-6C-VD3 (dansyl)] | 1300 nM |  |
| Ac-NAADLEARIK(Dansyl)HLRERLK(dT′)ARGPRDAAQLAEQLARAFERFARAG (designed binder) [4-C10L17-dT] |  | < 20 nM |
| Ac-NAADLEAAIK(Dansyl)HLAEALK(dT′)ARGPVDAAQLAEQLARAFEAFARAG (designed binder) [2-C10L17-dT] |  | < 20 nM |
| NAADLEARIRHLRERLAARGPRDAAQLAEQLARK([Ahx-VD3])FEK(Dansyl)FARAG (designed binder, not fully specified (N-terminus, C-terminus)) [4-C37L34-6C-VD3 (dansyl)] | 900 nM |  |
| Ac-NAADLEAAIRHLAERLAARGPK(dT′)DAK(Dansyl)QLAEQLARAFEAFARAG (designed binder) [3-C25L22-dT] |  | < 20 nM |
| Ac-NAADLEAK([8C-25OHVD3])IRHLAEK(Dansyl)LAARGPVDAAQLAEQLARRFEAFARAG (designed binder) [3-C15L8-8C-25OHVD3 (dansyl)] | 1100 nM |  |

The next lines start with the values.

| Kd [1] | Kd (thymidine kinase) | Binder |
| --- | --- | --- |
| 110 nM |  | Ac-NAADLEAK([8C-25OHVD3])IRHLREK(Dansyl)LAARGPRDAAQLAEQLARRFERFARAG (designed binder, not fully specified (C-terminus)) [4-C15L8-8C-25OHVD3 (dansyl)] |
| 480 nM |  | Ac-NEADLEAK([8C-25OHVD3])IRHLAEK(Dansyl)LAARGPVDAAQLAEQLARAFEAFARAG (designed binder) [2-C15L8-8C-25OHVD3 (dansyl)] |
| 750 nM |  | NAADLEARIRHLRERLAARGPK([Ahx-25OHVD3])DAK(Dansyl)QLAEQLARAFERFARAG (designed binder, not fully specified (N-terminus, C-terminus)) [4-C25L22-6C-25OHVD3 (dansyl)] |
| 190 nM |  | NAADLEARIRHLRERLAARGPRDAAQLAEQLARK([Ahx-25OHVD3])FEK(Dansyl)FARAG (designed binder, not fully specified (N-terminus, C-terminus)) [4-C37L34-6C-25OHVD3 (dansyl)] |
| 50 nM |  | Ac-NAADLEAK([Ahx-25OHVD3])IRHLREK(coumarin)LAARGPRDAAQLAEQLARRFERFARAG (designed binder) [4-C15L8-6C-25OHVD3 (coumarin)] |
| 290 nM |  | Ac-NEADLEAK([8C-25OHVD3])IRHLAEK(Dansyl)LEARGPEDAEQLAEQLARAFEAFARAG (designed binder) [1-C15L8-8C-25OHVD3 (dansyl)] |
